Assay [1] addresses TRAIL death receptor 5 (DR5) (UniProt O14763). The experiment in a line: flow cytometry, mock electroporated Jurkat T cells (endogenous DR5).
Assay [2] has the same target. The experiment in a line: flow cytometry, Jurkat T cells stained with anti-DR5 (FMO control 1.29%). On the technique in general: Flow cytometry measures light scatter and fluorescence of single cells or particles in a stream.
Assay [3] has the same target. The experiment in a line: flow cytometry, mock electroporated primary expanded NK cells (endogenous DR5).
Assay [4] has as its target DR5-41BB fusion protein (SEQ ID NO: 4). The experiment in a line: flow cytometry, primary expanded NK cells electroporated with DR5-41BB mRNA; 608 minus 208.
Assay [5] has the same target. The experiment in a line: flow cytometry, Jurkat T cells transfected with DR5-41BB; signal is endogenous DR5 plus DR5-41BB.
The target is the same in assay [6]. The experiment in a line: flow cytometry, Jurkat T cells transfected with DR5-41BB; DR5-41BB specific signal after mock is set to MFI=0.
For assay [7] the target is unchanged. The experiment in a line: flow cytometry, primary expanded NK cells electroporated with DR5-41BB mRNA; signal is endogenous DR5 plus DR5-41BB.
For assay [8] the target is unchanged. The experiment in a line: cell-based or functional assay.

Chain of DR5-41BB fusion protein (SEQ ID NO: 4) (chain, as listed by the source limits assumed): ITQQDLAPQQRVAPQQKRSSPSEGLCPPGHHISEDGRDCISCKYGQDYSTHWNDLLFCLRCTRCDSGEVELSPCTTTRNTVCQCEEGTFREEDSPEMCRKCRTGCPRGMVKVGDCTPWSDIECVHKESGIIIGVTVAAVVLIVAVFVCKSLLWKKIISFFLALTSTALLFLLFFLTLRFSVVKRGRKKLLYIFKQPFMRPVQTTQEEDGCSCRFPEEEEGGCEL

Regarding “anti-DR5 antibody (Clone: DJR2-4, Source: Biolegend, Cat: 307406)”, the mean MFI is 698 MFI in assay [1], 208 MFI in assay [3], 2070 MFI in assay [5] and 608 MFI in assay [7]. In addition, the percent of cells stained in assay [2] came out at 86.8%. Besides, the figures for the mean MFI (mock background subtracted) in assay [4] and in assay [6] were 400 MFI and 1380 MFI, respectively.
The substance “soluble TRAIL ligand (from UniProt P50591 114-281)” had a cell death in T cells (Propidium Iodide, flow cytometry, 16 hours, 100 ng/ml TRAIL) in assay [8] of 15%.
